In paper PMC5425828 one finds binding data, which are given here for two sequences.

The data set addresses T1, Sco1678 (GntR-His) (Streptomyces coelicolor M145) (UniProt Q9AD89).
T1 sequence: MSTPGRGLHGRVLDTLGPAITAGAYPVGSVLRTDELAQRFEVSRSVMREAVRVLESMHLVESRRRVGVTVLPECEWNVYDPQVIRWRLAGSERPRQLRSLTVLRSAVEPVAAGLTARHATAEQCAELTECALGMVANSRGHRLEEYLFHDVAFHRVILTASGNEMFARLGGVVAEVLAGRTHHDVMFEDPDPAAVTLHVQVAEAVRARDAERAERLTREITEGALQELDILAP
Description: EMSA. Particulars: 20 mM Tris/HCl pH 7.5, 50 mM KCl, 10 mM MgCl2, 5% (v/v) glycerol, 0.5 mM EDTA, 25 min at 25 C; 0.2 pmol Cy5 probe, 0.93-4.18 pmol protein; 8% native PAGE, 1x …. In general terms: In EMSA bound probe runs differently from free probe, usually more slowly.

On to “AGCCAGTGGCGATAAGGTTGCTGCATCGCACTCTCGCTGTCTGCTGTCTTCGTCGACACCTGATGTCGACGCAACTGAAACTCATTAGTACGACAACTTCAAGAGTCTGTGACGTATAAGTCTGACTTTTTGTTCCCGTGACATGCCCCGTACGCTGAGTGCATGAGCACACCGGGCCGGGGGCTGCACGGCCGCGTACTGGACACCCTCGGCCCCGCGATCACAGCTTATCGCCACTGGCT (double strand) [gntR-gntK intergeneric region]”, for which the binding result was “binds”.
“AGCCAGTGGCGATAAGCGTCGTACTCCTGTTCCTGCCGGCCGGTGCGTGGTGCGGCTATATGACCAGGGACAACAGCAGGACCAGGGCACCGGCGACCACCGAGATGATCGTCTCCATGACGGACCAGGTCTTGATGGTCTGCCCCACGTTCAGCCCGAAGTACTCCTTCACCAGCCAGCTTATCGCCACTGGCT (double strand) [gntZ promoter region]”: the binding entry is reported as “no binding”.
